Positions count from the first letter of the chain named. Numbers in names are those of the source.
B1: PR001028 (Selicrelumab) (antibody, human IgG2, kappa, V domains shown)
VH: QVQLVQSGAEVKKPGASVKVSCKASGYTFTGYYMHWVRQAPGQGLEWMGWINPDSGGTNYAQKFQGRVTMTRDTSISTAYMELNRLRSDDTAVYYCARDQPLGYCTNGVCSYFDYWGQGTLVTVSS
VL: DIQMTQSPSSVSASVGDRVTITCRASQGIYSWLAWYQQKPGKAPNLLIYTASTLQSGVPSRFSGSGSGTDFTLTISSLQPEDFATYYCQQANIFPLTFGGGTKVEIKR
notes: CD40 positive control antibody
B2: PR006497 (antibody, human IgG1, kappa, V domains shown)
VH: QVQLVQSGAEVKKPGASVKVSCKASGYTFAGYYMYWVRQAPGQGLEWMGWINPDSGAPTYAQKFQGRVTMTRDTSISTAYMELSRLRSDDTAVYYCAREKIYYGSGNYYPSFDYWGQGTLVTVSS
VL: DIQLTQSPSFLSASVGDRVTITCRASQGISSYLAWYQQKPGKAPKLLIYAASTLQSGVPSRFSGSGSGTEFTLTISSLQPEDFATYYCQQLYSYPWTFGQGTKVEIKR
notes: PR003379 variant L:N92Y; human IgG1 L234A, L235A, G237A
B3: PR006498 (antibody, human IgG1, kappa, V domains shown)
VH: B2 VH
VL: B2 VL with Y92I
notes: PR003379 variant L:N92I; human IgG1 L234A, L235A, G237A
B4: PR006502 (antibody, human IgG1, kappa, V domains shown)
VH: B2 VH
VL: B2 VL with Y92D
notes: PR003379 variant L:N92D; human IgG1 L234A, L235A, G237A
B5: PR006510 (antibody, human IgG1, kappa, V domains shown)
VH: B2 VH
VL: B2 VL with Y92N, S93R
notes: PR003379 variant L:S93R; human IgG1 L234A, L235A, G237A
B6: PR006504 (antibody, human IgG1, kappa, V domains shown)
VH: B2 VH
VL: B2 VL with Y92V
notes: PR003379 variant L:N92V; human IgG1 L234A, L235A, G237A
B7: PR006500 (antibody, human IgG1, kappa, V domains shown)
VH: B2 VH
VL: B2 VL with Y92M
notes: PR003379 variant L:N92M; human IgG1 L234A, L235A, G237A
B8: PR006515 (antibody, human IgG1, kappa, V domains shown)
VH: B2 VH
VL: B2 VL with Y92N, S93M
notes: PR003379 variant L:S93M; human IgG1 L234A, L235A, G237A
B9: PR006511 (antibody, human IgG1, kappa, V domains shown)
VH: B2 VH
VL: B2 VL with Y92N, S93N
notes: PR003379 variant L:S93N; human IgG1 L234A, L235A, G237A
B10: PR006499 (antibody, human IgG1, kappa, V domains shown)
VH: B2 VH
VL: B2 VL with Y92W
notes: PR003379 variant L:N92W; human IgG1 L234A, L235A, G237A

Biological target: T1, human CD40 on cells (human, UniProt P25942 21-277)
T1 construct: whole, on cells; The cell line used is named in each row's assay; also called hCD40; TNFRSF5
Assay: FACS, Raji cells
From the text: (§1) Flow cytometry (FACS) was used to detect the binding ability of the CD40 antibody to cells, such as, CHO-K1/hCD40 highly expressing human CD40 (constructed by Beijing Kyinno Biotechnology), CHO-K1/cyCD40 highly expressing cynomolgus monkey CD40 (constructed by Beijing Kyinno Biotechnology) and lymphoma cell highly expressing human CD40, Raji (ATCC, #CCL-86). Specifically, the cells were digested and resuspended with complete medium (F-12K for CHO-K1 cells; and RPMI-1640 for Raji cells); and the cells were adjusted to a cell density of 1×10⁶ cells/mL. The cells were seeded in a 96-well V-bottom plate (Corning, #3894) at 100 μL/well, and the antigen binding protein to be tested at 2x final concentration was then added at 100 μL/well and mixed evenly, with the highest final concentration of the antigen binding protein of 300 nM, a total of 8 concentrations, and 5-fold concentration gradient dilution. hIgG (Crownbio, #C0002) was used as a negative control, and the positive control molecule was the molecule in Table 1-5. The cells were incubated at 4° C. for 1 hours in the dark. After the incubation, the cells were rinsed twice by adding pre-chilled PBS at 100 μL/well, and centrifuged at 500 g at 4° C. for 5 minutes, and the supernatant was discarded. Then, a fluorescent secondary antibody (goat anti-human IgG (H+L) secondary antibody, Alexa Fluor® 488 conjugate, Invitrogen, #A11013, 1:1000 dilution) was added at 100 µL/well, and the cells were incubated at 4° C. for 30 minutes in the dark. The cells were washed twice with pre-chilled PBS at 200 μL/well, and centrifuged at 500 g at 4° C. for 5 minutes, and the supernatant was discarded. Finally, the cells were resuspended in pre-chilled PBS at 200 μL/well. The fluorescence signal values were read using a BD FACS CANTOII flow cytometer or ACEA NovoCyte flow cytometer, and the data were processed and analyzed using FlowJo v10 software (FlowJo, LLC).
(§2) Data processing and graphical analysis were performed using GraphPad Prism 8 software. The binding curve of the antibody to the target cell and parameters, such as EC50 value were obtained by four-parameter nonlinear fitting.

T1 sequence (P25942 21-277): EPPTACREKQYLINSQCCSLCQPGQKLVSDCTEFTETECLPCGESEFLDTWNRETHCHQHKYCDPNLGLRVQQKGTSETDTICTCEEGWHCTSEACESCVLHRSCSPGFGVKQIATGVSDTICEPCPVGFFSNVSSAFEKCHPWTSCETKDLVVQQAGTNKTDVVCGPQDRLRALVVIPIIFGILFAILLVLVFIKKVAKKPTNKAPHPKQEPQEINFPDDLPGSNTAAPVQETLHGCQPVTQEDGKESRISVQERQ

EC50 [nM] | Maximum MFI [MFI] | Binder
0.484 | 2450 | B1
0.252 | 9200 | B2
0.344 | 8980 | B3
0.287 | 9040 | B4
0.376 | 12400 | B5
0.35 | 12200 | B6
0.351 | 8980 | B7
0.322 | 8900 | B8
0.386 | 11800 | B9
0.301 | 8980 | B10

Biological target: T1, human CD40 on cells
Assay: cell-based or functional assay

EC50 (nM), crosslinked (CHO-K1/hCD32B), HEK293-hCD40-NFkB reporter [nM] | EC50 (nM), uncrosslinked, HEK293-hCD40-NFkB reporter [nM] | Maximum RLU, crosslinked (CHO-K1/hCD32B), HEK293-hCD40-NFkB reporter [RLU] | Maximum RLU, uncrosslinked, HEK293-hCD40-NFkB reporter [RLU] | RLU fold (crosslinked/uncrosslinked) [fold] | Binder
0.0413 | 0.163 | 17000 | 13400 | 1.28 | B1

Biological target: T1, human CD40 on cells
Assay: cell-based or functional assay
Remark: another data set of the same source

EC50 (nM), crosslinked, HEK293-hCD40-NFkB reporter [nM] | EC50 (nM), uncrosslinked, HEK293-hCD40-NFkB reporter [nM] | Fold (EC50 in the absence of crosslinking/EC50 in the presence of crosslinking) [fold] | Maximum fold (fold), crosslinked [fold] | Maximum fold (fold), uncrosslinked [fold] | Binder
0.158 | 0.479 | 3.03 | 4.77 | 4.61 | B2
0.196 | 0.462 | 2.36 | 5.53 | 4.4 | B3
0.17 | 0.321 | 1.88 | 4.95 | 4.63 | B4
0.0423 | 0.125 | 2.96 | 4.66 | 4.54 | B5
0.157 | 0.708 | 4.5 | 5.21 | 4.7 | B6
0.169 | 0.301 | 1.78 | 5.55 | 4.33 | B7
0.0669 | 0.268 | 4.01 | 4.91 | 4.54 | B8
0.16 | 0.815 | 5.1 | 5.19 | 4.5 | B9
0.405 | 1.04 | 2.58 | 5.28 | 3.92 | B10

Biological target: T1, human CD40 on cells
Assay: FACS, CHO-K1/hCD40 cells
From the text: as §1, §2

EC50 [nM] | Maximum MFI [MFI] | Binder
10.3 | 85000 | B1
5.09 | 92300 | B2
4.97 | 77700 | B3
4.55 | 88500 | B4
4.98 | 83000 | B5
4.87 | 86000 | B6
5.01 | 85900 | B7
4.59 | 86300 | B8
4.99 | 79400 | B9
4.65 | 84200 | B10

Biological target: T2, cynomolgus monkey CD40 on cells (cynomolgus monkey, UniProt G7PG38 21-278)
T2 construct: also called cyCD40; CHO-K1/cyCD40
Assay: FACS, CHO-K1/cyCD40 cells
From the text: as §1, §2

T2 sequence (G7PG38 entry or part of it limits assumed): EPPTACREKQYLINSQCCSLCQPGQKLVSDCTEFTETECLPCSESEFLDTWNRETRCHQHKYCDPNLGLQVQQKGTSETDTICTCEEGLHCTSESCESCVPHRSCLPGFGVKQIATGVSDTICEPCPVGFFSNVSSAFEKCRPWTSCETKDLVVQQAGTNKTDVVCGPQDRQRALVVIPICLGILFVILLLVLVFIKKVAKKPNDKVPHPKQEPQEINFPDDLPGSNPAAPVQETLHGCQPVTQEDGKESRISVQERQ

EC50 [nM] | Maximum MFI [MFI] | Binder
5.97 | 106000 | B1
3.54 | 51700 | B2
4.04 | 47300 | B3
3.96 | 47700 | B4
4.55 | 44300 | B5
3.71 | 51000 | B6
4.4 | 48500 | B7
3.75 | 50600 | B8
3.68 | 40300 | B9
3.2 | 49800 | B10

Biological target: T3, human CD40 protein (human, UniProt P25942 21-193, limits assumed)
T3 construct: the construct is not described
Assay: BLI (Octet Red 96e), antibody captured on AHC sensor, human CD40 protein in solution, 1:1 global fit
Method: To detect the affinity of CD40 antibodies for antigens such as human CD40 protein, the binding kinetics between antigen and antibody was analyzed using an Octet Red 96e (Fortebio) molecular interaction analyzer by biolayer interferometry (BLI) technique.
For determining the affinity of antibodies for antigens, the rotary speed of the sensor was set at 1000 rpm. […] The AHC sensors were finally regenerated by immersing in a 10 mM glycine-hydrochloric acid solution with pH 1.5 to elute the protein bound to the sensors.
For data analysis using Octet Data Analysis software (Fortebio, version 11.0), 0 nM well was used as the reference well, reference subtraction was performed, “1:1 Global fitting” method was selected for data fitting, the kinetic parameters of the binding of the antigen to the CD40 antibodies were calculated, and the kon (1/Ms) value, kdis (1/s) value and KD (M) value were obtained.

T3 sequence (P25942 21-193 limits assumed): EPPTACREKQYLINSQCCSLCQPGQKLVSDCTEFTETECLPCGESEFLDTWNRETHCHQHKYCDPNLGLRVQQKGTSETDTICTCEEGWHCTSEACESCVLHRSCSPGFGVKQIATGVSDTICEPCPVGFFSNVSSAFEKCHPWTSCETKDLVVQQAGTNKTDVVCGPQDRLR

Kd [nM] | koff [s⁻¹] | kon [M⁻¹ s⁻¹] | Binder
4.5 | 0.00048 | 107000 | B1
